From US20040138431A1

Key:
[1] = target: P75 and trkA receptors on rat PC-12 cell membranes (rat) (UniProt P35739); assay: cell-based or functional assay
[2] = target: P75 and trkA receptors on rat PC-12 cell membranes (rat) (UniProt P35739); assay: radioreceptor assay, competitive binding against NGF standard on rat PC-12 cell membranes

Sequence of 120/120 rhNGF homodimer (NGF-120, full-length 120/120 nerve growth factor) (P01138 122-241 limits assumed): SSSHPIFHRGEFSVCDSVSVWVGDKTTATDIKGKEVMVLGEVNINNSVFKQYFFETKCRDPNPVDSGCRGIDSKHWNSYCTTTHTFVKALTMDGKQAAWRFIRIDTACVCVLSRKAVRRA
Sequence of P75 and trkA receptors on rat PC-12 cell membranes (rat) (P35739 33-799, chain 1 of 2): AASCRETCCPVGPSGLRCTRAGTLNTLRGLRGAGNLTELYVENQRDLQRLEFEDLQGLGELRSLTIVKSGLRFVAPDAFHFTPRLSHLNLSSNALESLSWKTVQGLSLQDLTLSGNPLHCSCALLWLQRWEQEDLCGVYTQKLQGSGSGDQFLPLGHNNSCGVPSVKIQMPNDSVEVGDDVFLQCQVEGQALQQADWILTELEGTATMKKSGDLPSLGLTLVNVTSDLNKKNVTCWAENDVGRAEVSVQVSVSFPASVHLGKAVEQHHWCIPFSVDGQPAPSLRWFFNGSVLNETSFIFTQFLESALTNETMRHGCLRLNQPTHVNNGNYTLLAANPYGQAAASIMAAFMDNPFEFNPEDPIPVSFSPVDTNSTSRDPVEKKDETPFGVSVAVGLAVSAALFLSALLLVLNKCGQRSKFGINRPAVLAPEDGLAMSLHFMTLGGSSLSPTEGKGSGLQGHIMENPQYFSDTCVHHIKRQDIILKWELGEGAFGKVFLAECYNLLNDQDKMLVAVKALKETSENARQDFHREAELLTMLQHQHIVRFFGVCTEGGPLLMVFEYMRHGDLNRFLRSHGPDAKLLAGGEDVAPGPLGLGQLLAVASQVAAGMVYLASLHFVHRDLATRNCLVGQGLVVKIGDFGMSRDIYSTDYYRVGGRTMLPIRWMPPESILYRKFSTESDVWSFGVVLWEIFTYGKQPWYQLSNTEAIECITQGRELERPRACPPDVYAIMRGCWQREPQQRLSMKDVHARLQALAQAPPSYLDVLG
Sequence of P75 and trkA receptors on rat PC-12 cell membranes (rat) (P07174 30-425, chain 2 of 2, further chain): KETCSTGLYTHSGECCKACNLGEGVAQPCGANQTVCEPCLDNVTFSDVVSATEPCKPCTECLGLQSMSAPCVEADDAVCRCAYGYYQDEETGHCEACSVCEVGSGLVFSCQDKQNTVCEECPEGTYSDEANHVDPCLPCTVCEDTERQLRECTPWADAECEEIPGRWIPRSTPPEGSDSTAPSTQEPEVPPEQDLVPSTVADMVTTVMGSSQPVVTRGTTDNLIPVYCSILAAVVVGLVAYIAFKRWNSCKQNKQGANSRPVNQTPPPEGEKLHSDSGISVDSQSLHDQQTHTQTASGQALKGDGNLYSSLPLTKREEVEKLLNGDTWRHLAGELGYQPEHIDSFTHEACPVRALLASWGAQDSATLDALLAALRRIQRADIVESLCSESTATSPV

PC-12 based assay, activity relative to the 118/118 form [1]: 60%
percent as active as the 118/118 species [2]: 80 to 90%
Substance: 120/120 rhNGF homodimer (NGF-120, full-length 120/120 nerve growth factor) (from UniProt P01138 122-241) (ligand)
